{"source": "paper PMC11321683", "about": "“A Functional InDel in the WRKY10 Promoter Controls the Degree of Flesh Red Pigmentation in Apple”", "binders": {"B1": {"name": "proMdMYB10 W2 (dsDNA)", "DNA 1": "TGATAAAGGTATCTTATGGTGGTCAAAGATGTGTGTTGTAACTAGT", "DNA 2": "ACTAGTTACAACACACATCTTTGACCACCATAAGATACCTTTATCA"}, "B2": {"name": "proMdUFGT W5 (dsDNA)", "DNA 1": "TTTTTTGCAACAAATTACCTTTGACTAACAAAACAAGGATATTTCT", "DNA 2": "AGAAATATCCTTGTTTTGTTAGTCAAAGGTAATTTGTTGCAAAAAA"}, "B3": {"name": "proMdUFGT W5 mutant (dsDNA)", "DNA 1": "TTTTTTGCAACAAATTACCTTTTCCTAACAAAACAAGGATATTTCT", "DNA 2": "AGAAATATCCTTGTTTTGTTAGGAAAAGGTAATTTGTTGCAAAAAA"}, "B4": {"name": "proMdMYB10 W2 mutant (dsDNA)", "DNA 1": "TGATAAAGGTATCTTATGGTGGGAAAAGATGTGTGTTGTAACTAGT", "DNA 2": "ACTAGTTACAACACACATCTTTTCCCACCATAAGATACCTTTATCA"}, "B5": {"name": "proMdF3'5'H W2 (dsDNA)", "DNA 1": "TAAATAGTATCTAACGAAAATTGACCGCACGATATACAATGAACGA", "DNA 2": "TCGTTCATTGTATATCGTGCGGTCAATTTTCGTTAGATACTATTTA"}, "B6": {"name": "proMdF3'5'H W2 mutant (dsDNA)", "DNA 1": "TAAATAGTATCTAACGAAAATTTCCCGCACGATATACAATGAACGA", "DNA 2": "TCGTTCATTGTATATCGTGCGGGAAATTTTCGTTAGATACTATTTA"}, "B7": {"name": "proMdF3'5'H W3 (dsDNA)", "DNA 1": "TCACTCATATAGGTAAACTTTGTCAAGGATGTTCATGTAATTATAA", "DNA 2": "TTATAATTACATGAACATCCTTGACAAAGTTTACCTATATGAGTGA"}, "B8": {"name": "proMdF3'5'H W3 mutant (dsDNA)", "DNA 1": "TCACTCATATAGGTAAACTTTGGAAAGGATGTTCATGTAATTATAA", "DNA 2": "TTATAATTACATGAACATCCTTTCCAAAGTTTACCTATATGAGTGA"}}}
{"target": "MdWRKY10 (Malus domestica, UniProt D9ZJE9 1-528)", "sequence (D9ZJE9 entry or part of it)": "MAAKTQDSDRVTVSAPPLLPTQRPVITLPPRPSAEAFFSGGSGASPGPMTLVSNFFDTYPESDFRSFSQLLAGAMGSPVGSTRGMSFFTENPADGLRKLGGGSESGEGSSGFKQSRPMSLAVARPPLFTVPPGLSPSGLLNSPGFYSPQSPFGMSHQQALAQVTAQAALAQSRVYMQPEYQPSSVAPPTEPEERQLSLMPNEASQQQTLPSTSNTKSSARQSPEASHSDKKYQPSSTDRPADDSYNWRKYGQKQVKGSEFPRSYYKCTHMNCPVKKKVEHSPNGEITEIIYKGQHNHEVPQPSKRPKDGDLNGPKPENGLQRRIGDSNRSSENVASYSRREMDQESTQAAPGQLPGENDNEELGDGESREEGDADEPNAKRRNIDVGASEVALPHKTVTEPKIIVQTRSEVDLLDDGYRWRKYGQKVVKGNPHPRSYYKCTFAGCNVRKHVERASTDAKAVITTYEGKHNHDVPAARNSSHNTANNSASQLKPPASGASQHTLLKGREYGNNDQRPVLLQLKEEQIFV", "assay": "EMSA; EMSA with LightShift chemiluminescent kit (Thermo) per manufacturer; buffer, pH and temperature not stated", "conditions": "protein: recombinant; tags: His (pET-32a(+) vector); label: 3' biotin; blunt"}
{"binder": "B1", "binding result": "binds"}
{"binder": "B2", "binding result": "binds"}
{"binder": "B3", "binding result": "no binding"}
{"binder": "B4", "binding result": "no binding"}
{"binder": "B5", "binding result": "binds"}
{"binder": "B6", "binding result": "no binding"}
{"binder": "B7", "binding result": "binds"}
{"binder": "B8", "binding result": "no binding"}
